Data on 17 substances can be found in patent publication US20240294646A1.

Test [1] addresses Soluble FcγRIIaR extracellular domain with C-terminal 10xHis tag (UniProt P12318). The test can be described thus: SPR, antibody captured on HER2, receptor as analyte. On the technique in general: In SPR one partner is held on a chip, and binding of the other changes the refractive index at the surface.
Test [2] concerns the target Soluble FcγRIIb extracellular domain with C-terminal 10xHis tag (UniProt P31994). The test is described as above.
Test [3] shares this target. The test can be described thus: SPR; ratio of the fold for FcγRIIb to the fold for FcγRIIaR.
Test [4] deals with Biotinylated FcγRIIb extracellular domain-Fc fusion (human IgG1 Fc L234A_L235A_D265S) (human) (UniProt P31994). Description: competition electrochemiluminescence (MSD), antibody on HER2-coated plate, biotinylated FcγRIIb-Fc; competitor FcγRIIaR-Fc.
Another test addresses FcγRI (UniProt P12314). Description: SPR (ProteOn XPR36), antibody captured on immobilized HER2, FcγR as analyte, equilibrium fit.
Another test concerns the target FcγRIIIaV (UniProt P08637). The description is as above.
For a further test, the target named is FcγRIIaH (UniProt P12318). Described as above.
In test [5] the target is FcγRIIaR (UniProt P12318). The description is as above.
Test [6] concerns the target FcγRIIb (UniProt P31994). Described as above.
Test [7] has as its target FcγRIIb (UniProt P31994). Description: SPR; ratio of IIb-fold to IIaR-fold, FcγRIIaR as comparison receptor.
Test [8] has as its target Recombinant human C1q (C1740, Sigma Aldrich) (human) (UniProt P02745). The test can be described thus: ELISA; antibody coated on plate, human C1q added; signal as % of wild-type. On the technique in general: An ELISA detects its analyte on a solid surface through an enzyme-linked reagent.
The target of test [9] is FcγRIIb (UniProt P31994). Description: SPR; trastuzumab FSA variant against soluble FcγRIIb; KD ratio to wild-type FSA v21653.
Test [10] addresses FcγRIIaR (UniProt P12318). The test can be described thus: SPR; trastuzumab FSA variant against soluble FcγRIIaR; KD ratio to wild-type FSA v21653.
Test [11] deals with FcγRIIaR (UniProt P12318). Description: SPR (Protocol 2, Biacore 4000), antibody captured on immobilised HER2, FcγR as analyte.
Test [12] addresses Soluble FcγRIIaR extracellular domain with C-terminal 10×His tag (UniProt P12318). The test can be described thus: SPR; KD ratio against wild-type v16463.
Test [13] concerns the target Soluble FcγRIIb extracellular domain with C-terminal 10×His tag (UniProt P31994). The test can be described thus: SPR; KD ratio against wild-type v16463.
Test [14] deals with Soluble FcγRIIaR extracellular domain with C-terminal 10×His tag (UniProt P12318). The test can be described thus: SPR, antibody captured on HER2 chip, receptor as analyte.
Test [15] addresses Soluble FcγRIIb extracellular domain with C-terminal 10×His tag (UniProt P31994). The description is as above.
The target is the same in test [16]. Description: SPR; ratio of IIb-Fold to IIaR-Fold (FcγRIIb against FcγRIIaR).
Test [17] addresses Soluble FcγRIIb extracellular domain with C-terminal 10xHis tag (UniProt P31994). Description: SPR; IIb-Fold / IIaR-Fold.
The target of test [18] is Soluble FcγRIIaR extracellular domain with C-terminal 10xHis tag (UniProt P12318). Description: SPR; fold change in affinity over WT v16463.
Test [19] concerns the target Soluble FcγRIIb extracellular domain with C-terminal 10xHis tag (UniProt P31994). The test can be described thus: SPR; fold change in affinity over WT v16463.
Test [20] addresses Soluble FcγRIIaR extracellular domain with C-terminal 10xHis tag (UniProt P12318). The test can be described thus: SPR, antibody captured on immobilised HER2, soluble receptor as analyte.
Test [21] deals with Soluble FcγRIIb extracellular domain with C-terminal 10xHis tag (UniProt P31994). The description is as above.
Test [22] shares this target. Description: SPR (Biacore 4000), antibody captured on immobilised HER2, receptor as analyte.
Test [23] has as its target Biotinylated FcγRIIb extracellular domain-Fc fusion (human IgG1 Fc with L234A_L235A_D265S) (human) (UniProt P31994). The test can be described thus: competition electrochemiluminescence, antibody on HER2-coated plate, biotinylated FcγRIIb-Fc; competitor FcγRIIaR-Fc at 10x.
Test [24] addresses Soluble FcγRIIb extracellular domain with C-terminal 10xHis tag (UniProt P31994). Description: SPR Protocol 2; IIb-Fold relative to control v27294.
Test [25] shares this target. The test can be described thus: SPR Protocol 2; IIb selectivity relative to control v27294.
Test [26] has the same target. Description: SPR Protocol 2; ratio IIb-Fold/IIaR-Fold (FcγRIIb against FcγRIIaR).
In test [27] the target is Soluble FcγRIIaR extracellular domain with C-terminal 10xHis tag (UniProt P12318). The test can be described thus: SPR Protocol 2, OAA captured on HER2 chip, receptor as analyte; KD(WT v16463)/KD(variant).
For test [28], the target named is Soluble FcγRIIb extracellular domain with C-terminal 10xHis tag (UniProt P31994). The test is described as above.

In test [1], “Variant 27293 (strat1_control; Launching Module 1: A_G236N_G237A B_G236D_G237F_S239D_S267V_H268D_Template_1) (antibody)” registered an IIaR-Fold (affinity fold over WT v16463) of 35.2 fold, an IIaR-Fold wrt Control (v27293) of 1 fold and a Kd of 8.8 nM. Further, in test [2], the IIb-Fold (affinity fold over WT v16463) worked out at 415 fold, the IIb-Fold wrt Control (v27293) turned out to be 1 fold and the Kd amounted to 3.5 nM. In test [3], the IIb Selectivity (IIb-Fold/IIaR-Fold) was found to be 11.8 and the IIb Selectivity Fold wrt Control (v27293) was determined as 1 fold. In [4], the ELISA (% of non-competed FcγRIIb signal in presence of 10x FcγRIIa) is 70.8%.
As for “Variant 31522 (trastuzumab full-size antibody, electrostatic steering heterodimeric IgG1 Fc, no CH2 mutations; parental scaffold)”, the Kd in the test with FcγRI turned out to be 0.071 nM; in the test with FcγRIIIaV it was 1600 nM; with FcγRIIaH, 1530 nM; in the test with FcγRIIaR [5], 2090 nM; in the test with FcγRIIb [6], 6.34 µM.
Turning to “Variant 32295, trastuzumab full-size antibody (chain A P329I_strat2; chain B D329*I_I332L-strat1)”, in the test with FcγRIIb [7], the IIb Selectivity (IIb-Fold/IIaR-Fold) worked out at 82 fold. For the same substance, the C1q Binding (% WT) in test [8] was -1 % WT. The IIb-fold (fold change in affinity over wild-type) with FcγRIIb [9] turned out to be 103 fold. For the same substance, the IIaR-fold (fold change in affinity over wild-type) with FcγRIIaR [10] turned out to be 1 fold.
As for “Variant 16463, wild-type one-armed antibody (Scaffold 2: one trastuzumab Fab and heterodimeric IgG1 Fc)”, the Kd in the test with FcγRIIaR [11] stood at 360 nM.
On to “Variant 16463, wild-type one-armed trastuzumab antibody with heterodimeric IgG1 Fc (Scaffold 2)”, for which the IIaR-fold in test [12] was 1 fold. The IIb-Fold in [13] came out at 1 fold. The results for the Kd in test [14] and in [15] were 310 nM and 1400 nM, respectively. In test [16], the IIb Selectivity (IIb-Fold/IIaR-Fold) amounted to 1 fold.
As for “Variant 32293, trastuzumab full-size antibody (chain A S267A_strat2; chain B D329*I_I332L-strat1)”, the IIb Selectivity (IIb-Fold/IIaR-Fold) with FcγRIIb [7] worked out at 58 fold. For the same substance, the C1q Binding (% WT) in test [8] came out at 2 % WT. Further, the IIb-fold (fold change in affinity over wild-type) with FcγRIIb [9] came out at 323 fold. Besides, the IIaR-fold (fold change in affinity over wild-type) with FcγRIIaR [10] turned out to be 6 fold.
In test [17], “Variant 16463, wild-type one-armed trastuzumab antibody (Scaffold 2)” registered an IIb Selectivity of 1. The substance further yielded an IIaR-fold in test [18] of 1 fold. In test [19], this substance came in with an IIb-Fold of 1 fold. For the same substance, the Kd in test [20] amounted to 310 nM; in test [21], 1400 nM.
In test [22], “v27362, strat3_control (A_G236N_G237A B_G236D_G237F_S239D_S267V_H268D) (antibody)” returned a Kd of 150 nM.
On to “v12, IIb-specific comparator with symmetrical E233D_G237D_P238D_H268D_P271G_A330R (Mimoto et al. 2013) (antibody)”, for which the IIb Selectivity in [17] was found to be 80.5. The IIaR-fold in test [18] was determined as 1.4 fold. For the same substance, the IIb-Fold in test [19] is 112 fold. The Kd amounted to 220 nM in test [20] and 13 nM in [21]. The ELISA (% of non-competed FcγRIIb signal in presence of 10x FcγRIIa) in [23] amounted to 100%.
Regarding “Variant 31521 (trastuzumab full-size antibody, knobs-into-holes heterodimeric IgG1 Fc, no CH2 mutations; parental scaffold)”, the Kd turned out to be 0.098 nM in the test with FcγRI, 1890 nM with FcγRIIIaV, 2590 nM with FcγRIIaR [5] and 7.74 µM with FcγRIIb [6].
“Variant 26747 (A_E272V_strat2), one-armed trastuzumab antibody with heterodimeric IgG1 Fc” returned an IIb-Fold wrt Control in test [24] of 1 fold. This substance came in with an IIb Selectivity Improvement wrt Control in test [25] of 1.1 fold. In addition, the IIb Selectivity (IIb-Fold/IIaR-Fold) in [26] is 14.9 fold. Also, the IIaR-fold (fold change in affinity over wild-type) in test [27] came out at 6 fold. In addition, the IIb-fold (fold change in affinity over wild-type) in test [28] was 89.7 fold.
“Variant 31509 (trastuzumab full-size antibody, Azymetric heterodimeric IgG1 Fc, no CH2 mutations; parental scaffold)”: the Kd came to 0.067 nM in the test with FcγRI; 1190 nM with FcγRIIIaV; 1150 nM in the test with FcγRIIaH; 1520 nM in the test with FcγRIIaR [5]; 4.2 µM with FcγRIIb [6].
“Variant 32292, trastuzumab full-size antibody (chain A L235D_strat2; chain B D329*I_I332L-strat1)”: the IIb Selectivity (IIb-Fold/IIaR-Fold) with FcγRIIb [7] amounted to 78 fold. In addition, in test [8], the C1q Binding (% WT) turned out to be 2 % WT. Besides, the IIb-fold (fold change in affinity over wild-type) with FcγRIIb [9] was 451 fold. Also, the IIaR-fold (fold change in affinity over wild-type) in the test with FcγRIIaR [10] is 6 fold.
Regarding “Variant 27362, strat3_control (A_G236N_G237A / B_G236D_G237F_S239D_S267V_H268D), one-armed trastuzumab antibody”, in test [15], the Kd came out at 150 nM.
With “Variant 26752 (A_E272Y_strat2), one-armed trastuzumab antibody with heterodimeric IgG1 Fc”, the IIb-Fold wrt Control in test [24] came out at 0.9 fold. The same substance had an IIb Selectivity Improvement wrt Control in test [25] of 1.3 fold. For the same substance, in test [26], the IIb Selectivity (IIb-Fold/IIaR-Fold) was 17.5 fold. In test [27], this substance had an IIaR-fold (fold change in affinity over wild-type) of 4.6 fold. Moreover, the IIb-fold (fold change in affinity over wild-type) in [28] worked out at 79.8 fold.
The substance “Variant 26751 (A_E272W_strat2), one-armed trastuzumab antibody with heterodimeric IgG1 Fc” registered an IIb-Fold wrt Control in test [24] of 0.6 fold. In addition, the IIb Selectivity Improvement wrt Control in test [25] stood at 0.8 fold. For the same substance, the IIb Selectivity (IIb-Fold/IIaR-Fold) in test [26] was determined as 11.2 fold. In addition, the IIaR-fold (fold change in affinity over wild-type) in test [27] amounted to 5.4 fold. For the same substance, the IIb-fold (fold change in affinity over wild-type) in test [28] was found to be 60.1 fold.
In [1], “v12 (IIb-specific comparator, symmetrical E233D_G237D_P238D_H268D_P271G_A330R) (antibody)” had an IIaR-Fold (affinity fold over WT v16463) of 1.4 fold and a Kd of 220 nM. In test [2], the IIb-Fold (affinity fold over WT v16463) turned out to be 112 fold and the Kd amounted to 13 nM. The IIb Selectivity (IIb-Fold/IIaR-Fold) in test [3] worked out at 80.5. For the same substance, the ELISA (% of non-competed FcγRIIb signal in presence of 10x FcγRIIa) in test [4] came out at 100%.

As usually defined, the Kd is the free concentration of one partner at which half of the binding sites on the other are occupied at equilibrium, for simple one-to-one binding. A higher Kd goes with weaker binding.
